Patent publication US20070027082A1 (UNIVERSITY OF TENNESSEE RESEARCH FOUNDATION, published 2007)

What was measured:
[1] = target: T1, type I IL-1 receptor on murine EL4 6.1 cells (murine) (UniProt P13504); assay: competitive radioligand binding on EL4 6.1 cells, 100x excess of competitor
T1 sequence (looked up): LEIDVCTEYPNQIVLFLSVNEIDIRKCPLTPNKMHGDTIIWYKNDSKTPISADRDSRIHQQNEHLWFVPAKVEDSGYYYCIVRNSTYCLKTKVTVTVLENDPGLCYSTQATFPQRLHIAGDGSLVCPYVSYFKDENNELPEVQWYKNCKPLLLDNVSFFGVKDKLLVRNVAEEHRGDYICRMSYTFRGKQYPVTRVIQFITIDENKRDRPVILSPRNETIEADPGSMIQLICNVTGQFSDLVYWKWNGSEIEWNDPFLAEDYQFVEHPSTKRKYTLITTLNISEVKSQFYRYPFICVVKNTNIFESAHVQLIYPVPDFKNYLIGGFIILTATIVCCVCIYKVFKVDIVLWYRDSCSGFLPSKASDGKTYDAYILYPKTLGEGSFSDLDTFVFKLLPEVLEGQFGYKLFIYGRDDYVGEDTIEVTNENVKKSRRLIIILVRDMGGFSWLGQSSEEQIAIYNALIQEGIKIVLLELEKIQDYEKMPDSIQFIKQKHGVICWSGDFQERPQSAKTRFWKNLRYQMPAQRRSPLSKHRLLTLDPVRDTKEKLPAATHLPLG

[2] = target: T2, type I IL-1 receptor on murine EL4 6.1 cells (murine, UniProt P13504 20-576); assay: competition with [125I] IL-1 beta for type I IL-1R on EL4 6.1 cells
T2 construct: whole, on cells; Endogenous receptor on the murine T cell line EL4 6.1; also called type I IL-1Rs; IL-1 receptors on murine EL4 6.1 cells
T2 sequence (looked up): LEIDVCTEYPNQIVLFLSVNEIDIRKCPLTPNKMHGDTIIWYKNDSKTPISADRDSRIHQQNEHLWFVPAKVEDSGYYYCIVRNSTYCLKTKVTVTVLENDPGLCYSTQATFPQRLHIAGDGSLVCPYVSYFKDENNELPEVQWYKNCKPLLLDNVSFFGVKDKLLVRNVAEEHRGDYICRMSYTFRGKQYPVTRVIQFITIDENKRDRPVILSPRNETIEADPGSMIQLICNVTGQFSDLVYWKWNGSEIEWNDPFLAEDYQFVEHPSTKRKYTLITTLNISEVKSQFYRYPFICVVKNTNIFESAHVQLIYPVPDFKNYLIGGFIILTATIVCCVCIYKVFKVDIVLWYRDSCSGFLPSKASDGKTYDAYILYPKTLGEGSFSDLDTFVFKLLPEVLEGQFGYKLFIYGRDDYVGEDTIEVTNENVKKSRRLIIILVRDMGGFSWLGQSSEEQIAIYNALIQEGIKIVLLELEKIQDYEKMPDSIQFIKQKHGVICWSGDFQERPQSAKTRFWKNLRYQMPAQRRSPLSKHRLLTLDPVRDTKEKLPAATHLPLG
Method: IL-1 beta for binding to type I IL-1 receptors on murine cells. EL46.1 cells were incubated at 4° C. in presence of the sodium azide for 2 hr with and without each of the IL-1ra peptides or with soluble human recombinant interleukin Ira (shrIL-1ra) as a control. Cells were then incubated with [¹²⁵I]hrIL-1, transferred to microfuge tubes containing phthalolate oil, centrifuged and free and bound radioactivity determined. Non-specific binding was determined in the presence of 100× excess concentration of cold hrIL-1 beta.

Question: “soluble human recombinant interleukin 1ra (shrIL-1ra) (from UniProt P18510 26-177) (ligand)” was tested. Which displacement of [125I] IL-1 beta [1] did it give?
Answer: The displacement of [125I] IL-1 beta was > 90%.

B1: IL-1ra peptide 1-35 (SEQ ID NO: 13) (peptide)
peptide: RPSGRKSSKMQAFRIWDVNQKTFYLRNNQLVAGYL
notes: Synthetic peptide representing part of the processed/mature form of human sIL-1ra; also called IL-1ra 1-35; amino terminal IL-1ra peptide
Question: Does B1 bind [2]?
Answer: Result: no binding
